This is an account of results in publication PMC11558545, “Mechanistic Insights into the Function of 14-3-3 Proteins as Negative Regulators of Brassinosteroid Signaling in Arabidopsis” (Plant and Cell Physiology, 2024).

The experiment has as its target T1, Arabidopsis 14-3-3 isoform kappa (14-3-3κ) (Arabidopsis thaliana, UniProt P48348).
T1 construct: Full-length At14-3-3-κ^1−248 (Uniprot-ID P48348, http://uniprot.org); thioredoxin A (trxA) fusion (N, cleaved yes); 8xHis (N, cleaved yes); StrepII (N, cleaved yes); made in house; host or cells: E. coli BL21 (DE3) RIL
Description: biochemical. The class given is binding. The conditions noted are these: ITC; proteins auto-/transphosphorylated or expressed in E. coli or insect cells as described. The text has this: Full-length At14-3-3-κ^1−248 (Uniprot-ID P48348, http://uniprot.org), At14-3-3-λ^1−248 (P48349), At14-3-3-ω^1−259 (Q01525) or C-terminal truncated At14-3-3-κ^1−240, At14-3-3-λ^1−240 or At14-3-3-ω^1−237 isoforms and BIN2^7−380 from Arabidopsis were cloned from synthetic genes codon-optimized for expression in E. coli (Geneart, Thermofisher, Tauberbischofsheim, Germany) into vector pMH-HStrxT providing an N-terminal thioredoxin A (trxA) fusion protein containing 8xHis and StrepII affinity tags, and a tobacco etch virus protease (TEV) recognition site. Protein expression in E. coli BL21 (DE3) RIL grown to OD600nm= 0.6 was induced with 0.2 mM ispropyl β-D-galactoside in terrific broth at 16°C for 16 h. Cells were collected by centrifugation at 4500 × g for 30 min, washed in PBS buffer, centrifuged again at 4500 × g for 15 min and snap-frozen in liquid N2. For protein purification cells were resuspended in buffer A (20 mM Tris–HCl pH 8.0, 500 mM NaCl), and lysed by sonication (Branson DS450). The lysate was cleared by centrifugation at 7000 × g for 60 min and filtrated using a 0.45 µm molecular weight cutoff filter (Pall Corporation, Port Washington, NY, USA). The supernatant was loaded onto a Ni^2+ affinity column (HisTrap HP 5 mL, Cytiva Life Sciences, Freiburg im Breisgau, Germany), washed with buffer A and eluted in buffer A supplemented with 250 mM imidazole pH 8.0. The elution fractions containing the trxA-14-3-3 or trxA-BIN2 fusion proteins were loaded onto a 5 mL Strep-Tactin Superflow High Capacity column (IBA Lifesciences, Goettingen, Germany), washed with buffer A and eluted in buffer A supplemented with 2.5 mM desthiobiotin. […] Dimeric (14-3-3s) or monomeric (BIN2) peak fractions were concentrated to 10–40 mg/ml and used directly for biochemistry and crystallization experiments. Point mutations were introduced by site-directed mutagenesis and variants At14-3-3 λ^N233A and 14-3-3 λ^R136L/Y137F were purified using the same protocol as described for the wild type.
The BRI1^814−1196 and BAK1^250−615/SERK3 cytoplasmic domains were purified as previously described ([Bojar et al. 2014]). BSK1 (residues 55–512), BSU1 (residues 1–793) and BIN2 (residues 7–380) were cloned into a modified pACEBac1 plasmid ([Bieniossek et al. 2012]) providing TEV-cleavable N-terminal 8xHis and tandem StrepII affinity tags, and expressed in baculovirus-infected Trichoplusia ni Tnao cells ([Hashimoto et al. 2010]). Cells grown to a density of 1.5 × 10^6 cells ml^−1 were infected with 10 ml of virus subjected to two rounds of viral amplification per 250 ml of cells and incubated for 48 h at 28°C. […]

T1 sequence (P48348 whole entry, the tested form may be a part, canonical isoform): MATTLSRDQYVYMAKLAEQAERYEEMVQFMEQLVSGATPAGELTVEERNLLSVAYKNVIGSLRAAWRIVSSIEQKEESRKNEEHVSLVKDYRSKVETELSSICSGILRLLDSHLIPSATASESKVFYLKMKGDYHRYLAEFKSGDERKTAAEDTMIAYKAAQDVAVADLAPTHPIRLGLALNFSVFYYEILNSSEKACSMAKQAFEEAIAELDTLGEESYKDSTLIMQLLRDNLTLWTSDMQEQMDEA

B1: BSK1^55-512: BSK1 (residues 55–512) after incubation with BRI1^814−1196 (protein)
chain: IPSFSEFSFADLKAATNNFSSDNIVSESGEKAPNLVYKGRLQNRRWIAVKKFTKMAWPEPKQFAEEAWGVGKLRHNRLANLIGYCCDGDERLLVAEFMPNDTLAKHLFHWENQTIEWAMRLRVGYYIAEALDYCSTEGRPLYHDLNAYRVLFDEDGDPRLSCFGLMKNSRDGKSYSTNLAYTPPEYLRNGRVTPESVTYSFGTVLLDLLSGKHIPPSHALDMIRGKNIILLMDSHLEGKFSTEEATVVVELASQCLQYEPRERPNTKDLVATLAPLQTKSDVPSYVMLGIKKQEEAPSTPQRPLSPLGEACSRMDLTAIHQILVMTHYRDDEGTNELSFQEWTQQMKDMLDARKRGDQSFREKDFKTAIDCYSQFIDVGTMVSPTVFGRRSLCYLLCDQPDAALRDAMQAQCVYPDWPTAFYMQSVALAKLNMNTDAADMLNEAAQLEEKRQRGGRGS
modifications: phosphorylated by incubation with BRI1^814−1196 (mainly Ser230); left off: 8xHis, N-terminal, cleaved | tandem StrepII, N-terminal, cleaved
Regarding B1, the “binding to 14-3-3κ, in words” value is reported as “No specific binding was detected”.

B2: BAK1^250-615: BAK1/SERK3 cytoplasmic domain (residues 250–615) after incubation with BRI1^814−1196 (protein)
chain: RRKKPQDHFFDVPAEEDPEVHLGQLKRFSLRELQVASDNFSNKNILGRGGFGKVYKGRLADGTLVAVKRLKEERTQGGELQFQTEVEMISMAVHRNLLRLRGFCMTPTERLLVYPYMANGSVASCLRERPESQPPLDWPKRQRIALGSARGLAYLHDHCDPKIIHRDVKAANILLDEEFEAVVGDFGLAKLMDYKDTHVTTAVRGTIGHIAPEYLSTGKSSEKTDVFGYGVMLLELITGQRAFDLARLANDDDVMLLDWVKGLLKEKKLEALVDVDLQGNYKDEEVEQLIQVALLCTQSSPMERPKMSEVVRMLEGDGLAERWEEWQKEEMFRQDFNYPTHHPAVSGWIIGDSTSQIENEYPSGPR
modifications: auto- and transphosphorylated by incubation with BRI1^814−1196; sites not given
Consider B2, for which the “binding to 14-3-3κ, in words” value is recorded as “No specific binding was detected”.

B3: BIN2^7-380: BIN2 (residues 7–380) expressed either in Escherichia coli or in insect cells (protein)
chain: MPAAVVDGHDQVTGHIISTTIGGKNGEPKQTISYMAERVVGTGSFGIVFQAKCLETGETVAIKKVLQDRRYKNRELQLMRVMDHPNVVCLKHCFFSTTSKDELFLNLVMEYVPESLYRVLKHYSSANQRMPLVYVKLYMYQIFRGLAYIHNVAGVCHRDLKPQNLLVDPLTHQVKICDFGSAKQLVKGEANISYICSRFYRAPELIFGATEYTTSIDIWSAGCVLAELLLGQPLFPGENAVDQLVEIIKVLGTPTREEIRCMNPHYTDFRFPQIKAHPWHKIFHKRMPPEAIDFASRLLQYSPSLRCTALEACAHPFFDELREPNARLPNGRPFPPLFNFKQEVAGSSPELVNKLIPDHIKRQLGLSFLNQSGT
modifications: left off: thioredoxin A, N-terminal, cleaved | 8xHis, N-terminal, cleaved | StrepII, N-terminal, cleaved
notes: BIN2 (residues 7–380) expressed either in Escherichia coli or in insect cells
As to B3, the “binding to 14-3-3κ, in words” value is given as “No specific binding was detected”.

B4: BRI1^814-1196: isolated BRI1 cytoplasmic domain (residues 814–1196) after incubation with the BAK1 cytoplasmic domain (protein)
chain: GREMRKRRRKKEAELEMYAEGHGNSGDRTANNTNWKLTGVKEALSINLAAFEKPLRKLTFADLLQATNGFHNDSLIGSGGFGDVYKAILKDGSAVAIKKLIHVSGQGDREFMAEMETIGKIKHRNLVPLLGYCKVGDERLLVYEFMKYGSLEDVLHDPKKAGVKLNWSTRRKIAIGSARGLAFLHHNCSPHIIHRDMKSSNVLLDENLEARVSDFGMARLMSAMDTHLSVSTLAGTPGYVPPEYYQSFRCSTKGDVYSYGVVLLELLTGKRPTDSPDFGDNNLVGWVKQHAKLRISDVFDPELMKEDPALEIELLQHLKVAVACLDDRAWRRPTMVQVMAMFKEIQAGSGIDSQSTIRSIEDGGFSTIEMVDMSIKEVPEGKL
modifications: auto- and transphosphorylated by incubation with BAK1^250−615; sites not given
notes: isolated BRI1 cytoplasmic domain (residues 814–1196) after incubation with the BAK1 cytoplasmic domain
Turning to B4, the “binding to 14-3-3κ, in words” value is listed as “No specific binding was detected”.
